In patent US11578136B2, “Compositions and methods for treating cancer” (INNATE PHARMA, priority 2017, dated 2023):

T1: soluble recombinant human CD39 protein (Homo sapiens, UniProt P49961)
T1 construct: made in house; host or cells: CHO cells
T1 sequence (P49961 with tags, fused parts or gaps): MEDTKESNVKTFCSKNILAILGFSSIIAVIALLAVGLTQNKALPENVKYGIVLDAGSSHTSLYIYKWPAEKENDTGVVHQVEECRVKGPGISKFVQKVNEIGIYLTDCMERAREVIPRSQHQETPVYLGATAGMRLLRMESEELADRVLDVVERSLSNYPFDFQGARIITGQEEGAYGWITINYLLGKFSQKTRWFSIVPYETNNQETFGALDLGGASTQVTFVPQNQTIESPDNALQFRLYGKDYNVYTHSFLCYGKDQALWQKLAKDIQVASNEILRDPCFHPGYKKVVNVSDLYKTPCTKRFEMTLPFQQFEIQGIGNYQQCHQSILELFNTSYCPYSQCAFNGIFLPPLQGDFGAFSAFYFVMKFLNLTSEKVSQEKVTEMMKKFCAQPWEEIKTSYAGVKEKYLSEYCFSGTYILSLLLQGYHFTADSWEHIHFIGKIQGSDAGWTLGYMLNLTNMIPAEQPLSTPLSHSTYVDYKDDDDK


Columns and labels:
[1] = system: NTPDase1, NTPDase3, NPP1 or mouse NTPDase8; conditions: not specific for CD39; cited from earlier work
[2] = target: T1, soluble recombinant human CD39 protein; test: Inhibition of the enzymatic activity of soluble CD39 (Cell Titer Glo); assay type: biochemical; conditions: result in words; 400 ng/ml sCD39, 20 μM ATP
Method: The inhibition by antibodies of the enzymatic activity of soluble CD39 protein produced was evaluated using Cell Titer Glo™ (Promega, reference G7571) that allows assessment of ATP hydrolysis through use of a reagent that generates a luminescent signal proportional to the amount of ATP present. In this way, inhibition of the soluble-CD39-meidatd ATP hydrolysis can be assessed. Briefly, dose ranges of anti-CD39 antibodies from 100 μg/ml to 6×10^−3 μg/ml were incubated with 400 ng/ml of soluble recombinant human CD39 protein having the amino acid sequence described in the Methods section (SEQ ID NO: 45), for 1 h at 37° C. 20 μM ATP was added to the plates for 30 additional minutes at 37° C. before addition of CTG (Cell Titer Glo) reagent. Emitted light was quantified using an Enspire™ luminometer after a short incubation period of 5 min in the dark. Anti-CD39 antibody efficacy was determined by comparing emitted light in presence of antibody with ATP alone (maximal light emission) and ATP together with soluble CD39 protein (minimal light emission).

[3] = system: CD39 mutants transfected in Hek-293T cells; test: Epitope mapping: binding to CD39 mutants by flow cytometry; set-up: species or system human
Method: CD39 mutants were generated by PCR. The sequences amplified were run on agarose gel and purified using the Macherey Nagel PCR Clean-Up Gel Extraction kit (reference 740609). The purified PCR products generated for each mutant were then ligated into an expression vector, with the ClonTech InFusion system. The vectors containing the mutated sequences were prepared as Miniprep and sequenced. After sequencing, the vectors containing the mutated sequences were prepared as Midiprep using the Promega PureYield™ Plasmid Midiprep System. HEK293T cells were grown in DMEM medium (Invitrogen), transfected with vectors using Invitrogen's Lipofectamine 2000 and incubated at 37° C. in a CO2 incubator for 48 hours prior to testing for transgene expression. The targeted amino acid mutations in the table 1 below are shown using numbering of SEQ ID NO: 1.
In order to define the epitopes of anti-CD39 antibodies, we designed CD39 mutants defined by substitutions of amino acids exposed at the molecular surface over the surface of CD39. Mutants were transfected in Hek-293T cells, as shown in the table 1, using numbering of SEQ ID NO: 1.
Dose-ranges of I-394 (10-2.5-0.625-0.1563-0.0391-0.0098-0.0024-0.0006 μg/ml) are tested on the 20 generated mutants by flow cytometry. […] Mutant 5 contains amino acid substitutions at residues Q96, N99, E143 and R147.
Mutants were transfected in Hek-293T cells, as shown in the table 1, using numbering of SEQ ID NO: 1. Dose-ranges of antibodies I-394 were tested on the 20 mutants by flow cytometry. […] Mutant 19 includes substitutions at residues R138, M139 and E142. The core epitope of I-394 thus includes one or more (or all of) residues R138, M139 and E142.
Mutants were transfected in Hek-293T cells, as shown in the table 1, using numbering of SEQ ID NO: 1.Dose-ranges of test antibodies (10-2.5-0.625-0.1563-0.0391-0.0098-0.0024-0.0006 μg/ml) are tested on the 20 generated mutants by flow cytometry.

inhibition of the enzymatic activity of soluble CD39 protein [2] | Molecule | type of inhibition of NTPDases [1] | binding to mutant 11 of CD39 ([3]; mutant 11: N371K, L372K, E375A, K376G, V377A, insertion 377V) | binding to any other mutant of the 20 CD39 mutants ([3]; remaining mutants of Table 1)
 | CCN(CC)c1ncnc2c1ncn2[C@@H]1O[C@H](COP(=O)(O)OP(=O)(O)C(Br)(Br)P(=O)(O)O)[C@@H](O)[C@H]1O [ARL67156] | weak competitive inhibitor |  | 
showed inhibition | I-399: anti-CD39 antibody, VH SEQ ID NO: 30, VL SEQ ID NO: 31 (antibody, listed as Mus musculus, V domains shown) VH: PVQLQQPGAEVVMPGASVKLSCKASGYTFTSFWMNWMRQRPGQGLEWIGEIDPSDFYTNSNQRFKGKATLTVDKSSSTAYMQLSSLTSEDSAVYFCARGDFGWYFDVWGTGTSVTVSS VL: EIVLTQSPTTMTSSPGEKITFTCSASSSINSNYLHWYQQKPGFSPKLLIYRTSNLASGVPTRFSGSGSGTSYSLTIGTMEAEDVATYYCQQGSSLPRTFGGGTKLEIK |  | loss of binding | without loss of binding
